Measurements as given in patent US20240374744.

Tested on: huHF(+)-DOX (huHF(+) protein nanoparticle-doxorubicin conjugate)
Sequence (chain, as listed by the source): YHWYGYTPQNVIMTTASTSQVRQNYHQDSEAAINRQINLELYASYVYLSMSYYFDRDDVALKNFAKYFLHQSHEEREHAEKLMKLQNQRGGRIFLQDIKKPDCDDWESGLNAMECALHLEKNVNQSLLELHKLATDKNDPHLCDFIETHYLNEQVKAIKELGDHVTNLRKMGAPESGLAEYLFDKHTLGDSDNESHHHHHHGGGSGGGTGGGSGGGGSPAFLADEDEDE

Substance: cathepsin B
- cleavage of the conjugate and release of doxorubicin (native-PAGE, UV absorbance), enzyme in LPM mixture: it was observed that the peptide was not specifically cleaved thereby the drug was not selectively released

Substance: cathepsin D
- cleavage of the conjugate and release of doxorubicin (native-PAGE, UV absorbance), enzyme in LPM mixture: it was observed that the peptide was not specifically cleaved thereby the drug was not selectively released

Substance: cathepsin E
- cleavage of the conjugate and release of doxorubicin (native-PAGE, Coomassie staining, UV absorbance of doxorubicin): From 3 hours after staining, it was visually observed that the portion to which the anticancer drug was bound in the conjugate was effectively cleaved by cathepsin E

Substance: cathepsin L
- cleavage of the conjugate and release of doxorubicin (native-PAGE, UV absorbance), enzyme in LPM mixture: it was observed that the peptide was not specifically cleaved thereby the drug was not selectively released
